According to US20230060095A1 (Regeneron, published 2023):
Residue numbers refer to the chain shown, from its start. Values belong to the binder of their own block, whether it stands above or below them.

Columns and labels:
[1] = target: T1, soluble HLA:A2:PRAME (425-433) tetramer (human); assay: flow cytometry, soluble pMHC tetramer on CHO cells expressing the TCR;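 also: CHO cells transfected with vectors encoding full-length paired TCR alpha and beta chains, stained with PRAME/HLA tetramer and read by flow cytometry, each value reflects one listed TCR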
T1 construct: Commercial tetramer (MBL International); construct limits, biotin tag and streptavidin/fluorophore not described; also called PRAME/HLA tetramer reagent; PRAME (425-433)/HLA-A2

peptide on HLA-A*02:01 = target: T2, peptide on HLA-A*02:01 (human); assay: activation reporter or marker
T2 peptide: SLLMWITQC

[2] = target: T3, PRAME peptide on HLA-A*02:01 (human); assay: multimer staining
T3 peptide: SLLQHLIGL

[3] = target: HLA-A2/PRAME (425-433) on HLA-A2*01 HEK293T cells pulsed with PRAME 425-433 peptide (human); assay: cell-based or functional assay
[4] = target: T4, PRAME peptide on HLA-A*02:01 (human); assay: multimer staining
T4 peptide: RLDQLLRHV

[5] = target: T5, soluble HLA-A2:PRAME (312-320) tetramer (human); assay: flow cytometry, soluble pMHC tetramer on CHO cells expressing the TCR
T5 construct: Commercial tetramer (MBL International); construct limits, biotin tag and streptavidin/fluorophore not described; also called PRAME/HLA tetramer reagent

- Cell Frequency ≥1000 MFI, ≥1% (% tetramer positive cells in the Ag+ gate) [1]: 6.86%
- binding result (peptide on HLA-A*02:01): no recognition
- binding result [2]: recognises
- EC50 (µM) of peptide, AP1 luciferase reporter in Jurkat cells expressing the TCR [3]: 0.0479 µM
B2: PN42833 (TCR, V domains shown)
V domain 1: DAKTTQPPSMDCAEGRAANLPCNHSTISGNEYVYWYRQIHSQGPQYIIHGLKNNETNEMASLIITEDRKSSTLILPHATLRDTAVYYCIVRDTTSGTYKYIFGTGTRLKVLA
V domain 2: EAQVTQNPRYLITVTGKKLTVTCSQNMNHEYMSWYRQDPGLGLRQIYYSMNVEVTDKGDVPEGYKVSRKEKRNFPLILESPSPNQTSLYFCASSLSSTGFSPLHFGNGTRLTVT

- Cell Frequency ≥1000 MFI, ≥1% (% tetramer positive cells in the Ag+ gate) [1]: 4.95%
- binding result (peptide on HLA-A*02:01): no recognition
- binding result [2]: recognises
- EC50 (µM) of peptide, AP1 luciferase reporter in Jurkat cells expressing the TCR [3]: 115 µM
B5: PN42762 (TCR, V domains shown)
V domain 1: DAKTTQPNSMESNEEEPVHLPCNHSTISGTDYIHWYRQLPSQGPEYVIHGLTSNVNNRMASLAIAEDRKSSTLILHRATLRDAAVYYCILNTGTASKLTFGTGTRLQVTL
V domain 2: EAQVTQNPRYLITVTGKKLTVTCSQNMNHEYMSWYRQDPGLGLRQIYYSMNVEVTDKGDVPEGYKVSRKEKRNFPLILESPSPNQTSLYFCASSLSSNTEAFFGQGTRLTVV

- Cell Frequency ≥1000 MFI, ≥1% (% tetramer positive cells in the Ag+ gate) [1]: 4.35%
- binding result (peptide on HLA-A*02:01): no recognition
- binding result [2]: recognises
- EC50 (µM) of peptide, AP1 luciferase reporter in Jurkat cells expressing the TCR [3]: 0.126 µM
B7: PN42815 (TCR, V domains shown)
V domain 1: GESVGLHLPTLSVQEGDNSIINCAYSNSASDYFIWYKQESGKGPQFIIDIRSNMDKRQGQRVTVLLNKTVKHLSLQIAATQPGDSAVYFCAENNYGQNFVFGPGTRLSVLP
V domain 2: B5 V domain 2 with S96W, S97D, N98S, T99S, E100P, A101L, F102H, Q105N, V112T
notes: the summary and claims print the pair as 893/805

- Cell Frequency ≥1000 MFI, ≥1% (% tetramer positive cells in the Ag+ gate) [1]: 4.39%
- binding result (peptide on HLA-A*02:01): no recognition
- binding result [2]: recognises
- EC50 (µM) of peptide, AP1 luciferase reporter in Jurkat cells expressing the TCR [3]: 0.046 µM
B9: PN42746 (TCR, V domains shown)
V domain 1: GESVGLHLPTLSVQEGDNSIINCAYSNSASDYFIWYKQESGKGPQFIIDIRSNMDKRQGQRVTVLLNKTVKHLSLQIAATQPGDSAVYFCAENRQDNYGQNFVFGPGTRLSVLP
V domain 2: B5 V domain 2 with S96W, S97V

- Cell Frequency ≥1000 MFI, ≥1% (% tetramer positive cells in the Ag+ gate) [1]: 4.09%
- binding result (peptide on HLA-A*02:01): no recognition
- binding result [2]: recognises
- EC50 (µM) of peptide, AP1 luciferase reporter in Jurkat cells expressing the TCR [3]: 0.94 µM
B10: PN42895 (TCR, V domains shown)
V domain 1: DQQVKQSSPSLSVQEGRISILNCDYTNSMFDYFLWYKKYPAEGPTFLISISSIKDKNEDGRFTVFLNKSAKHLSLHIVPSQPGDSAVYFCAASAGSARQLTFGSGTQLTVLP
V domain 2: B5 V domain 2 with S96W

- binding result [4]: recognises
- Cell Frequency ≥1000 MFI, ≥1% (% tetramer positive cells in the Ag+ gate) [5]: 52.6%
B12: PN46909 (TCR, V domains shown)
V domain 1: AQTVTQSQPEMSVQEAETVTLSCTYDTSENNYYLFWYKQPPSRQMILVIRQEAYKQQNATENRFSVNFQKAAKSFSLKISDSQLGDTAMYFCAFDYGQNFVFGPGTRLSVLP
V domain 2: NAGVTQTPKFRILKIGQSMTLQCAQDMNHNYMYWYRQDPGMGLKLIYYSVGAGITDKGEVPNGYNVSRSTTEYFPLRLELAAPSQTSVYFCASSYGGGQTEAFFGQGTRLTVV
notes: stained with anti-mouse TCR constant region antibody H57-597) and full-length chains were expressed on CHO cells

- Cell Frequency ≥1000 MFI, ≥1% (% tetramer positive cells in the Ag+ gate) [1]: 91.6%
- binding result (peptide on HLA-A*02:01): no recognition
- binding result [2]: recognises
- EC50 (µM) of peptide, AP1 luciferase reporter in Jurkat cells expressing the TCR [3]: 0.876 µM
B13: PN42774 (TCR, V domains shown)
V domain 1: QKEVEQNSGPLSVPEGAIASLNCTYSDRGSQSFFWYRQYSGKSPELIMSIYSNGDKEDGRFTAQLNKASQYVSLLIRDSQPSDSATYLCAVNRGTDKLIFGTGTRLQVFP
V domain 2: DAGVTQSPTHLIKTRGQQVTLRCSPKSGHDTVSWYQQALGQGPQFIFQYYEEEERQRGNFPDRFSGHQFPNYSSELNVNALLLGDSALYLCASSWTDYGYTFGSGTRLTVV

- Cell Frequency ≥1000 MFI, ≥1% (% tetramer positive cells in the Ag+ gate) [1]: 7.27%
- binding result (peptide on HLA-A*02:01): no recognition
- binding result [2]: recognises
- EC50 (µM) of peptide, AP1 luciferase reporter in Jurkat cells expressing the TCR [3]: 0.13 µM
B14: PN42870 (TCR, V domains shown)
V domain 1: TQLLEQSPQFLSIQEGENLTVYCNSSSVFSSLQWYRQEPGEGPVLLVTVVTGGEVKKLKRLTFQFGDARKDSSLHITAAQPGDTGLYLCAENSGGGADGLTFGKGTHLIIQP
V domain 2: B13 V domain 2 with W95F

- Cell Frequency ≥1000 MFI, ≥1% (% tetramer positive cells in the Ag+ gate) [1]: 49.4%
- binding result (peptide on HLA-A*02:01): no recognition
- binding result [2]: recognises
- EC50 (µM) of peptide, AP1 luciferase reporter in Jurkat cells expressing the TCR [3]: 0.245 µM
B15: PN42795 (TCR, V domains shown)
V domain 1: RKEVEQDPGPFNVPEGATVAFNCTYSNSASQSFFWYRQDCRKEPKLLMSVYSSGNEDGRFTAQLNRASQYISLLIRDSKLSDSATYLCVVNGGSQGNLIFGKGTKLSVKP
V domain 2: B13 V domain 2 with W95V, T96G

- Cell Frequency ≥1000 MFI, ≥1% (% tetramer positive cells in the Ag+ gate) [1]: 10.5%
- binding result (peptide on HLA-A*02:01): no recognition
- binding result [2]: recognises
- EC50 (µM) of peptide, AP1 luciferase reporter in Jurkat cells expressing the TCR [3]: 0.911 µM
B17: PN42845 (TCR, V domains shown)
V domain 1: TQLLEQSPQFLSIQEGENLTVYCNSSSVFSSLQWYRQEPGEGPVLLVTVVTGGEVKKLKRLTFQFGDARKDSSLHITAAQPGDTGLYLCAGIRSNDYKLSFGAGTTVTVRA
V domain 2: EAQVTQNPRYLITVTGKKLTVTCSQNMNHEYMSWYRQDPGLGLRQIYYSMNVEVTDKGDVPEGYKVSRKEKRNFPLILESPSPNQTSLYFCASSSWTAHTEAFFGQGTRLTVV

The next lines start with the binder.

B1: PN42712 (TCR, V domains shown)
V domain 1: GIQVEQSPPDLILQEGANSTLRCNFSDSVNNLQWFHQNPWGQLINLFYIPSGTKQNGRLSATTVATERYSLLYISSSQTTDSGVYFCAVGSSNDYKLSFGAGTTVTVRA
V domain 2: B2 V domain 2 with L95P, S96G, S97T, T98G
- Cell Frequency ≥1000 MFI, ≥1% (% tetramer positive cells in the Ag+ gate) [1]: 80.7%
- binding result (peptide on HLA-A*02:01): no recognition
- binding result [2]: recognises
- EC50 (µM) of peptide, AP1 luciferase reporter in Jurkat cells expressing the TCR [3]: 0.0133 µM

B3: PN42711 (TCR, V domains shown)
V domain 1: B1 V domain 1 with A17V, Q78R, D94G
V domain 2: B2 V domain 2 with L95P, S96G, S97T, T98G
- Cell Frequency ≥1000 MFI, ≥1% (% tetramer positive cells in the Ag+ gate) [1]: 4.26%
- binding result (peptide on HLA-A*02:01): no recognition
- binding result [2]: recognises
- EC50 (µM) of peptide, AP1 luciferase reporter in Jurkat cells expressing the TCR [3]: 0.0569 µM

B4: PN42707 (TCR, V domains shown)
V domain 1: B9 V domain 1 with R94K, Q95R
V domain 2: B5 V domain 2 with L95F, S96W, S97V
- Cell Frequency ≥1000 MFI, ≥1% (% tetramer positive cells in the Ag+ gate) [1]: 7.28%
- binding result (peptide on HLA-A*02:01): no recognition
- binding result [2]: recognises
- EC50 (µM) of peptide, AP1 luciferase reporter in Jurkat cells expressing the TCR [3]: 0.0118 µM

B6: PN42441 (TCR, V domains shown)
V domain 1: DAKTTQPNSMESNEEEPVHLPCNHSTISGTDYIHWYRQLPSQGPEYVIHGLTSNVNNRMASLAIAEDRKSSTLILHRATLRDAAVYYCIRRPGNQFYFGTGTSLTVIP
V domain 2: B5 V domain 2 with S96W, S97T, N98G, T99S
- Cell Frequency ≥1000 MFI, ≥1% (% tetramer positive cells in the Ag+ gate) [1]: 15.5%
- binding result (peptide on HLA-A*02:01): no recognition
- binding result [2]: recognises
- EC50 (µM) of peptide, AP1 luciferase reporter in Jurkat cells expressing the TCR [3]: 0.821 µM

B8: PN42826 (TCR, V domains shown)
V domain 1: B10 V domain 1 with S7N
V domain 2: B5 V domain 2 with S96Y, S97T, N98H
- Cell Frequency ≥1000 MFI, ≥1% (% tetramer positive cells in the Ag+ gate) [1]: 9.26%
- binding result (peptide on HLA-A*02:01): no recognition
- binding result [2]: recognises
- EC50 (µM) of peptide, AP1 luciferase reporter in Jurkat cells expressing the TCR [3]: 4.92 µM

B11: PN42450 (TCR, V domains shown)
V domain 1: AQRVTQPEKLLSVFKGAPVELKCNYSYSGSPELFWYVQYSRQRLQLLLRHISRESIKGFTADLNKGETSFHLKKPFAQEEDSAMYYCALGNTDKLIFGTGTRLQVFP
V domain 2: DVKVTQSSRYLVKRTGEKVFLECVQDMDHENMFWYRQDPGLGLRLIYFSYDVKMKEKGDIPEGYSVSREKKERFSLILESASTNQTSMYLCASSSPRTGWYGYTFGSGTRLTVV
- Cell Frequency ≥1000 MFI, ≥1% (% tetramer positive cells in the Ag+ gate) [1]: 62.2%
- binding result (peptide on HLA-A*02:01): no recognition
- binding result [2]: recognises
- EC50 (µM) of peptide, AP1 luciferase reporter in Jurkat cells expressing the TCR [3]: 0.0336 µM

B16: PN42558 (TCR, V domains shown)
V domain 1: GIQVEQSPPDLILQEGANSTLRCNFSDSVNNLQWFHQNPWGQLINLFYIPSGTKQNGRLSATTVATERYSLLYISSSQTTDSGVYFCVLGGGSQGNLIFGKGTKLSVKP
V domain 2: B13 V domain 2 with W95F
- Cell Frequency ≥1000 MFI, ≥1% (% tetramer positive cells in the Ag+ gate) [1]: 85.7%
- binding result (peptide on HLA-A*02:01): no recognition
- binding result [2]: recognises
- EC50 (µM) of peptide, AP1 luciferase reporter in Jurkat cells expressing the TCR [3]: 0.261 µM
